We go through five molecules from publication PMC4866751, “Bacillus licheniformis Contains Two More PerR-Like Proteins in Addition to PerR, Fur, and Zur Orthologues” (PLoS ONE, 2016).

The target in series [1] is FurBL (BL05249) (Bacillus licheniformis ATCC14580). Kind of series: SEC; Superdex 200 HiLoad 16/60 gel filtration, Chelex-100-treated buffer A (20 mM Tris-HCl, pH 8.0, 0.1 M NaCl, 5% glycerol); oligomeric state judged by elution profile in the last purification step.
The target of series [2] is PerRBL (BL00075) (Bacillus licheniformis ATCC14580). Described as above.
Series [3] deals with ZurBL (BL03703) (Bacillus licheniformis ATCC14580). The series is described as above.
Series [4] relates to PerR2 (BL00690) (Bacillus licheniformis ATCC 14580). Kind of series: EMSA. Conditions: EMSA: 20 mM Tris-HCl pH 8.0, 50 mM KCl, 5% glycerol, 50 ug/ml BSA, 100 uM MnCl2; 6% PAGE in 45 mM Tris-borate with 100 uM MnCl2; temperature not stated.
Series [5] concerns the molecule itself. Kind of series: SEC; Superdex 200 HiLoad 16/60 gel filtration, Chelex-100-treated buffer A (20 mM Tris-HCl, pH 8.0, 0.1 M NaCl, 5% glycerol); oligomeric state judged by elution profile in the last purification step. (In gel filtration, larger molecules generally elute earlier.)

The term stoichiometry N denotes a count of units in the complex or per binding partner. The molecule FurBL (BL05249) (natural protein) showed a stoichiometry N in series [1] of 2. PerRBL (BL00075) (natural protein) showed a stoichiometry N in series [2] of 2. ZurBL (BL03703) (natural protein) returned a stoichiometry N in series [3] of 2. A word on the Kd: it is the constant that tells how readily two partners part at equilibrium. Low readings indicate tighter binding, high ones weaker binding. Consider “mrgA promoter fragment with PerR box (273 bp)”, for which the Kd in series [4] was determined as 70 nM.

B1: PerR2 (BL00690) (natural protein, Bacillus licheniformis ATCC14580, UniProt Q62UQ7 1-154, looked up)
chain: MENETNVKQEAMAQLKRKGIRMTPQRLAIYHYFLANRNHPTIAEIQQSLREIYPAVSTATIYNTIRYFKQEGLIKEMGFTDPLRFDLALEEHDHVICEVCGKIVDFHCPQLEKVKDIAARLTGFKVTHHRLELYGICNDCQAKRKYAAKEKGVR
notes: PerR-like protein BL00690 of Bacillus licheniformis ATCC14580; ORF cloned into the NcoI and BamHI sites of pET-16b (pJL202); Contains structural Zn2+ (~0.8 per monomer); source: E. coli BL21 (DE3) pLysS, purified (heparin-Sepharose, SP-Sepharose, Superdex 200)
Consider B1, for which the “stoichiometry N” value in series [5] turned out to be 2.
